Test results from patent US20260022186A1 (UNIVERSITY OF CHICAGO, published 2026).
Substitutions are numbered along the chain they refer to.

T1: Full-length human NT5E (recombinant, secreted) (human)
T1 chain: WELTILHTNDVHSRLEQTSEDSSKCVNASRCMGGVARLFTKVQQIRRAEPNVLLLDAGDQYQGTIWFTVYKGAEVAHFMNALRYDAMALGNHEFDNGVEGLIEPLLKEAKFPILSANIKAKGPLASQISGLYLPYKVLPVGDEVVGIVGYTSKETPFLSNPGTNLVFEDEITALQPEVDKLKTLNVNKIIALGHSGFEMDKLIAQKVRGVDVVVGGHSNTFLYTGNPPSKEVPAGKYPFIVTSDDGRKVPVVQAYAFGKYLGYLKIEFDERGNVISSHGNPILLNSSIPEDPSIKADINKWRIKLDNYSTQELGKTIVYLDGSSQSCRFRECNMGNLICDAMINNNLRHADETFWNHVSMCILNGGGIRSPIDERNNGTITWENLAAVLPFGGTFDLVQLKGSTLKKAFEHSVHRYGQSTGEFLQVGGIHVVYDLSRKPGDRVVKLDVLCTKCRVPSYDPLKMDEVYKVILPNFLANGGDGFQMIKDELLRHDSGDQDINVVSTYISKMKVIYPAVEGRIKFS

T2: Full-length murine NT5E (recombinant, secreted) (murine)
T2 chain: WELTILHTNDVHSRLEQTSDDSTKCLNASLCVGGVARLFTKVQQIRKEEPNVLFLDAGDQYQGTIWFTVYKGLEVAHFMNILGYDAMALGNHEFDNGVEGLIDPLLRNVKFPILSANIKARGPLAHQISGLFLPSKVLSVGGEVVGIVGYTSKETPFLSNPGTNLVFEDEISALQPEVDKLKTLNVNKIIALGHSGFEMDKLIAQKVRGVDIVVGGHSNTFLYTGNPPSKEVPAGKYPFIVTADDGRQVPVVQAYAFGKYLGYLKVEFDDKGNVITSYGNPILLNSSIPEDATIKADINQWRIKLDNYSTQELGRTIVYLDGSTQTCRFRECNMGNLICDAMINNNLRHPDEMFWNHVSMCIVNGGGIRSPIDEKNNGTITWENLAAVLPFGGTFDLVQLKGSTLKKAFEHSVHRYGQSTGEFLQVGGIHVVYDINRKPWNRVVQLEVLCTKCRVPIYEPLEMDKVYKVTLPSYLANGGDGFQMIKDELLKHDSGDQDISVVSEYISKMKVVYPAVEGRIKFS

T3: hNT5EFF (F417A/F500A mutant of hNT5E) (human, UniProt P21589 27-549)
T3 sequence (looked up): T1 chain with A350T, T353M, F391A, F474A

B1: 1789 Fab (Fab, V domains shown)
VH: EVQLVESGGGLVQPGGSLRLSCAASGFNVSYSSIHWVRQAPGKGLEWVASISSSSGYTYYADSVKGRFTISADTSKNTAYLQMNSLRAEDTAVYYCARNYWGWYPFYYFAFDYWGQGTLVTV
VL: DIQMTQSPSSLSASVGDRVTITCRASQSVSSAVAWYQQKPGKAPKLLIYSASSLYSGVPSRFSGSRSGTDFTLTISSLQPEDFATYYCQQGWDYPITFGQGTKVEIKR
B2: 1789 AM32 Fab (Fab, V domains shown)
VH: B1 VH with S50R, S52R, S53G, S54N, S55E, Y57D
VL: B1 VL
notes: also called Fab32
B3: 1789 AM42 Fab (Fab, V domains shown)
VH: B1 VH with S50K, S52R, S53G, S54G, S55H, G56Q, Y57D, Y59H
VL: B1 VL
B4: 1789 IgG (antibody, V domains shown)
VH: EVQLVESGGGLVQPGGSLRLSCAASGFNVSYSSIHWVRQAPGKGLEWVASISSSSGYTYYADSVKGRFTISADTSKNTAYLQMNSLRAEDTAVYYCARNYWGWYPFYYFAFDYWGQGTLVTVSS
VL: B1 VL
B5: 1789 AM39 Fab (Fab, V domains shown)
VH: B1 VH with S52R, S53G, S54A, S55G, G56S, Y57D, Y59R
VL: B1 VL

Assays:
[1] = target: T1, Full-length human NT5E (recombinant, …); test: protein ELISA, immobilised biotinylated NT5E, 1 mM ATP
[2] = target: T1, Full-length human NT5E (recombinant, …); test: SPR, NT5E on NTA chip via His-tag, no ATP
[3] = target: T2, Full-length murine NT5E (recombinant, …); test: SPR, NT5E on NTA chip via His-tag, 1 mM ATP; SPR, Fab, 1 mM ATP
[4] = target: T2, Full-length murine NT5E (recombinant, …); test: protein ELISA, immobilised biotinylated NT5E, 1 mM ATP; protein ELISA, Fab, 1 mM ATP (EC50ATP)
[5] = target: T1, Full-length human NT5E (recombinant, …); test: cell-based or functional assay
[6] = target: hNT5EDF (substrate binding knock-out variant of human NT5E) (human); test: cell-based or functional assay
[7] = target: T3, hNT5EFF (F417A/F500A mutant of hNT5E); test: cell-based or functional assay
[8] = target: T1, Full-length human NT5E (recombinant, …); test: SPR, NT5E on NTA chip via His-tag, 1 mM ATP
[9] = target: T1, Full-length human NT5E (recombinant, …); test: SPR, no ATP
[10] = target: T2, Full-length murine NT5E (recombinant, …); test: SPR, no ATP
[11] = target: T1, Full-length human NT5E (recombinant, …); test: SPR, 1 mM ATP
[12] = target: T2, Full-length murine NT5E (recombinant, …); test: SPR, 1 mM ATP
[13] = target: T2, Full-length murine NT5E (recombinant, …); test: protein ELISA, immobilised biotinylated NT5E, 1 mM ATP
[14] = target: T1, Full-length human NT5E (recombinant, …); test: protein ELISA, immobilised biotinylated NT5E, no ATP (apo)
[15] = target: T2, Full-length murine NT5E (recombinant, …); test: SPR, no ATP; footnote *: data generated poor fits

Binder	EC50 [1] [nM]	Kd [9] [nM]	koff [9] [s⁻¹]	kon [9] [M⁻¹ s⁻¹]	Kd [10] [nM]	koff [10] [s⁻¹]	kon [10] [M⁻¹ s⁻¹]	Kd [11] [nM]	koff [11] [s⁻¹]	kon [11] [M⁻¹ s⁻¹]	Kd [12] [nM]	koff [12] [s⁻¹]	kon [12] [M⁻¹ s⁻¹]	further results
B1	37	–	–	–	–	–	–	–	–	–	–	–	–	Kd [2]: 760 nM; koff [2]: 0.044 s⁻¹; kon [2]: 57000 M⁻¹ s⁻¹; Kd [3]: 160 nM; koff [3]: 0.014 s⁻¹; kon [3]: 85000 M⁻¹ s⁻¹; EC50 [4]: 132 nM; TM of NT5E by differential scanning fluorimetry with 1789 Fab, 1 mM ATP [5]: 66 ° C.; TM of NT5E by differential scanning fluorimetry with 1789 Fab, No ATP [5]: 48 ° C.; TM of NT5E by differential scanning fluorimetry with 1789 Fab, 1 mM ATP [6]: 46 ° C.; TM of NT5E by differential scanning fluorimetry with 1789 Fab, No ATP [6]: 48 ° C.; TM of NT5E by differential scanning fluorimetry with 1789 Fab, 1 mM ATP [7]: 46 ° C.; TM of NT5E by differential scanning fluorimetry with 1789 Fab, No ATP [7]: 47 ° C.; Kd [8]: 42 nM; koff [8]: 0.0073 s⁻¹; kon [8]: 170000 M⁻¹ s⁻¹
B2	–	86	0.0091	110000	150	0.011	78000	15	0.0042	270000	15	0.0028	190000	–
B3	–	38	0.0067	180000	63	0.012	190000	11	0.0036	320000	12	0.0029	250000	–
B4	0.86	–	–	–	–	–	–	–	–	–	–	–	–	EC50 [13]: 1.14 nM; EC50 [14]: 2.14 nM
B5	–	35	0.0099	280000	–	0.013	140000	7.9	0.0039	490000	12	0.0035	290000	Kd [15]: 99 nM
